Measured values as given in patent US20210024596A1.

Legend:
[1] = biological target: histone H3 (human) (UniProt P68431); experiment: SPR kinetic assay, ligand H3 captured on the chip, analyte prothrombin fragment 1 at 1.0-6.0 µM
[2] = biological target: histone H4 (human) (UniProt P62805); experiment: SPR kinetic assay, ligand H4 captured on the chip, analyte prothrombin fragment 1 at 1.0-6.0 µM

Substance: recombinant human prothrombin fragment 1 (from UniProt P00734 44-198)
- Kd [1]: 2350 nM
- Kd [2]: 896 nM
